The values that follow come from US20120220015.

Data set [1] addresses T1, fibrin (clot formed from purified fibrinogen with α-thrombin), P02671.
T1 chain 1: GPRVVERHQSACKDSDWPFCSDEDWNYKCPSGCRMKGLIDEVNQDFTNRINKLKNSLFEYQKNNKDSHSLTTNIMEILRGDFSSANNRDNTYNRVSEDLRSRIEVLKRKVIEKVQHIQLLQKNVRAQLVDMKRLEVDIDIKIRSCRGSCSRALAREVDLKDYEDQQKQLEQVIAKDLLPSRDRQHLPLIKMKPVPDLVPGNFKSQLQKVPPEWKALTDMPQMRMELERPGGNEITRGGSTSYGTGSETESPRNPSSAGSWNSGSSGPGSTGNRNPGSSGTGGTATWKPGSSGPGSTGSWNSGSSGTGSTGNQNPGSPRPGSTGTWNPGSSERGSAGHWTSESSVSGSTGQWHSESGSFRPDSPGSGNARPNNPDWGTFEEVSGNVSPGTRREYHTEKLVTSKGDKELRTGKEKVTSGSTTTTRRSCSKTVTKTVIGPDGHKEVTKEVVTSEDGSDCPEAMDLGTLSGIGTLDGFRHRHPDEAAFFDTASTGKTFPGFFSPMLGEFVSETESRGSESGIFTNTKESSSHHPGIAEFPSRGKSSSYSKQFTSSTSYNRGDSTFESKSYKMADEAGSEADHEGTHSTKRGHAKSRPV
T1 chain 2: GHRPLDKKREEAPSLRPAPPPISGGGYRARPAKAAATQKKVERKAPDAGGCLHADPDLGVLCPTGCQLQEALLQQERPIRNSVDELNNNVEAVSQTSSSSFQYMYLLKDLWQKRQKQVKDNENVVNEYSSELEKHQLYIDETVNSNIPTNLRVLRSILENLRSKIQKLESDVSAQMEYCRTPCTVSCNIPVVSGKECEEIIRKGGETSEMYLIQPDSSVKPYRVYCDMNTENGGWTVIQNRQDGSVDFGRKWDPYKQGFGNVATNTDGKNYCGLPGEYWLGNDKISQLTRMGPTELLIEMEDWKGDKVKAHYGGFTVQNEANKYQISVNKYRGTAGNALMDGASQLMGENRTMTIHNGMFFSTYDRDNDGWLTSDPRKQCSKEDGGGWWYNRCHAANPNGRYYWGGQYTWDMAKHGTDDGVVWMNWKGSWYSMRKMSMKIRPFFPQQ
T1 chain 3: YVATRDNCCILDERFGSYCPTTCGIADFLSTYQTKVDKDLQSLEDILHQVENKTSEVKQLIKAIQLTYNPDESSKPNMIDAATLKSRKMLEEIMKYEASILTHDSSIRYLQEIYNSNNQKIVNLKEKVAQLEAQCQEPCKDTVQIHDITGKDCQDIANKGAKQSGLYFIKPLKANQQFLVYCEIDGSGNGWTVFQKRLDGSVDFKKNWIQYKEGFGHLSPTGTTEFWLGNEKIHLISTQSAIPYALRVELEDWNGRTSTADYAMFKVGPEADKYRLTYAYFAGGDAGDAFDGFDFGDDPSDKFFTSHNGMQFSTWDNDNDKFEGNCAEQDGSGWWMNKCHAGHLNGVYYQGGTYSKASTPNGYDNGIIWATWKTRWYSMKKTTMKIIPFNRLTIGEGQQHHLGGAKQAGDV

Data set [2] concerns the target T2, α2-antiplasmin, P08697.
T2 chain: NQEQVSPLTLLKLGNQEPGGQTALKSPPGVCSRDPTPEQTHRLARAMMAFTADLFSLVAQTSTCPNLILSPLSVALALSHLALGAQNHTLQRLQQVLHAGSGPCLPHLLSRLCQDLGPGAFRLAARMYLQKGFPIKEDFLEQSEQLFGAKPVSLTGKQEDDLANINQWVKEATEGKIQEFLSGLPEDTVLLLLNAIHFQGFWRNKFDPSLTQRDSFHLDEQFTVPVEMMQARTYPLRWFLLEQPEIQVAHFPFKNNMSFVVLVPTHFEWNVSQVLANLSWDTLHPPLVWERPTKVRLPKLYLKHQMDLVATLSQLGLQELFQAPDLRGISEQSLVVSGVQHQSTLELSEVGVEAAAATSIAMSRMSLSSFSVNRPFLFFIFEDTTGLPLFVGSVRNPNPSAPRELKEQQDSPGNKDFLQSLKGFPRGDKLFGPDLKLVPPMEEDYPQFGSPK

B1: Lemna-derived plasmin from transgenic line BAP12-B2-150 (aglycosylated plasmin derived from mature human plasminogen with the N289D substitution) (protein)
chain 1: KVYLSECKTGNGKNYRGTMSKTKNGITCQKWSSTSPHRPRFSPATHPSEGLEENYCRNPDNDPQGPWCYTTDPEKRYDYCDILECEEECMHCSGENYDGKISKTMSGLECQAWDSQSPHAHGYIPSKFPNKNLKKNYCRNPDRELRPWCFTTDPNKRWELCDIPRCTTPPPSSGPTYQCLKGTGENYRGNVAVTVSGHTCQHWSAQTPHTHDRTPENFPCKNLDENYCRNPDGKRAPWCHTTNSQVRWEYCKIPSCDSSPVSTEQLAPTAPPELTPVVQDCYHGDGQSYRGTSSTTTTGKKCQSWSSMTPHRHQKTPENYPNAGLTMNYCRNPDADKGPWCFTTDPSVRWEYCNLKKCSGTEASVVAPPPVVLLPDVETPSEEDCMFGNGKGYRGKRATTVTGTPCQDWAAQEPHRHSIFTPETNPRAGLEKNYCRNPDGDVGGPWCYTTNPRKLYDYCDVPQCAAPSFDCGKPQVEPKKCPGR
chain 2: VVGGCVAHPHSWPWQVSLRTRFGMHFCGGTLISPEWVLTAAHCLEKSPRPSSYKVILGAHQEVNLEPHVQEIEVSRLFLEPTRKDIALLKLSSPAVITDKVIPACLPSPNYVVADRTECFVTGWGETQGTFGAGLLKEAQLPVIENKVCNRYEFLNGRVQSTELCAGHLAGGTDSCQGDSGGPLVCFEKDKYILQGVTSWGLGCARPNKPGVYVRVSRFVTWIEGVMRNN
Take B1: the “fibrin clot lysis (decrease of turbidity at 340 nm), plasmin at 500, 250, 125 and 62 nM” value in data set [1] is “There was no evidence of a difference between fibrinolysis induced by plasmin derived from BAP01-B2-230 and BAP12-B2-150; their respective lysis profiles were very similar for all four plasmin concentrations”. Also, the “plasmin activity (S-2403 hydrolysis at 405 nm) after 30 minutes pre-incubation with α2-AP, plasmin:α2-AP molar ratio of 1:1” value in data set [2] was “no plasmin activity was detected for human, BAP12-B2-150, or BAP01-B1-230 plasmin, indicating that the inhibition was complete”.

B2: Lemna-derived plasmin from transgenic line BAP01-B2-230 (derived from mature human plasminogen with the N-linked glycosylation site Asn-289) (protein)
chain 1: KVYLSECKTGNGKNYRGTMSKTKNGITCQKWSSTSPHRPRFSPATHPSEGLEENYCRNPDNDPQGPWCYTTDPEKRYDYCDILECEEECMHCSGENYDGKISKTMSGLECQAWDSQSPHAHGYIPSKFPNKNLKKNYCRNPDRELRPWCFTTDPNKRWELCDIPRCTTPPPSSGPTYQCLKGTGENYRGNVAVTVSGHTCQHWSAQTPHTHNRTPENFPCKNLDENYCRNPDGKRAPWCHTTNSQVRWEYCKIPSCDSSPVSTEQLAPTAPPELTPVVQDCYHGDGQSYRGTSSTTTTGKKCQSWSSMTPHRHQKTPENYPNAGLTMNYCRNPDADKGPWCFTTDPSVRWEYCNLKKCSGTEASVVAPPPVVLLPDVETPSEEDCMFGNGKGYRGKRATTVTGTPCQDWAAQEPHRHSIFTPETNPRAGLEKNYCRNPDGDVGGPWCYTTNPRKLYDYCDVPQCAAPSFDCGKPQVEPKKCPGR
chain 2: VVGGCVAHPHSWPWQVSLRTRFGMHFCGGTLISPEWVLTAAHCLEKSPRPSSYKVILGAHQEVNLEPHVQEIEVSRLFLEPTRKDIALLKLSSPAVITDKVIPACLPSPNYVVADRTECFVTGWGETQGTFGAGLLKEAQLPVIENKVCNRYEFLNGRVQSTELCAGHLAGGTDSCQGDSGGPLVCFEKDKYILQGVTSWGLGCARPNKPGVYVRVSRFVTWIEGVMRNN
Consider B2, for which the “fibrin clot lysis (decrease of turbidity at 340 nm), plasmin at 500, 250, 125 and 62 nM” value in data set [1] is “There was no evidence of a difference between fibrinolysis induced by plasmin derived from BAP01-B2-230 and BAP12-B2-150; their respective lysis profiles were very similar for all four plasmin concentrations”. In data set [2], the “plasmin activity (S-2403 hydrolysis at 405 nm) after 30 minutes pre-incubation with α2-AP, plasmin:α2-AP molar ratio of 1:1” value was “no plasmin activity was detected for human, BAP12-B2-150, or BAP01-B1-230 plasmin, indicating that the inhibition was complete”.
